The series can be described thus: yeast display, Sf9 membrane polyspecificity reagent, FACS + sequencing; frameworks hold sequencing errors. A digest of the protocol: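 Nanobodies came from a synthetic yeast display library in Saccharomyces cerevisiae BJ5465, induced with galactose for 36–48 hours and stained for 1 hour at 4 °C with 10% biotinylated, detergent-solubilized Sf9 membrane reagent. Cells were enriched on streptavidin microbeads and then FACS-sorted, with low and high (top ~1%) gates set on anti-HA fluorescence for expression and streptavidin fluorescence for reagent binding. Each polyreactivity label reflects the gate a clone came from. Genes were amplified by colony PCR, sequenced by MiSeq 2 × 250 and filtered by CDR length.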
For the sequence “QLQLVESGGGLVQAGGSLRLSCAASGLTFYHYAMGWYRQAPGKERELVAAISTSGGSTYYADSVKGRFTVSRDNAKNTVYLQMNSLKPEDTAVYYCATERTYRYDFWGQGTQVTVSS”, the “polyreactivity (PSR sort gate)” value was “high polyreactivity”.

For the sequence “QVQLVESGGGLVQEGGSLRLSCAASGRTFRINAMGWYRQAPGKERELVAAITSIAGNTYYADSVKGRFTISRDNAKNTVYLQMNSLKPEDTAVYYCAVDSVPWGFRGAYGLTRYYYWGQGTQVTVSS”, the “polyreactivity (PSR sort gate)” value is recorded as “low polyreactivity”.

On to “QVQLEESGGGLVQAGGSLRLSCAASGSTFRYYAMGWYRQAPGKERELVAAISRSGGRTYYADSVKGRFTISRDNAKNTVYLQMNSLKPEDTAVYYCATRGDGSSWGDYDYWGQGTQVTVSS”, for which the “polyreactivity (PSR sort gate)” value is listed as “high polyreactivity”.

On to “QVQLEDSGGGLVQAGGSLRLSCAASVSTFSRNAMGWYRQAPGKEREFVAAISWSGSSTYYADSVKGRFTISRDNAKNTVFLQMNSLKPEDTAVYYCAARETWYPYYWMGYWGQGTQVTVSS”, for which the “polyreactivity (PSR sort gate)” value was “high polyreactivity”.

As for “QVQLVESGGGLVQAGGRLRLTCAASGSTFFTNAMGWYRQAPGKERELVAAITINDGSTFYADSVKGRFTISRDNAKKTVYLQMNSLKPEDTAVYYCNADGVDLYDFWGQGTQVTVSS”, the “polyreactivity (PSR sort gate)” value was “low polyreactivity”.

As to “QVQLVESAGGLVQAGGSLRLSCAHSGITYTRYAMGWYRHAPGKESELVAAISSGGRTNYADSVKGRFTISRDNAKNTVYLQMNTLKPEDTAVYYCNAAGHRWYPRYHYWGQGTQVTVSS”, the “polyreactivity (PSR sort gate)” value is listed as “high polyreactivity”.

Take “QVQLVESGGGLVQAGGSLRLSCAASGRIFGQYAMGWYRQAPGKERELVAAISWRGGTTYYADSVKGRFTISRDNAKNTVYLKMNSLKPVDTAVYYCNADVWVYPYDYWGQGTQVTVSS”: the “polyreactivity (PSR sort gate)” value was “low polyreactivity”.

As to “QVQLVESGGGLVQAGGSLRLSCAASGSIFTSNAMGWYRQAPGKERELVAAISRRGSNTFYADSVKGRFTISRDNAKNTVYLQMNSLKPEDTAVYYCNTLVNAISYEYYYWGQGTQVNVSS”, the “polyreactivity (PSR sort gate)” value is “high polyreactivity”.

Take “QVQLVESGGGLVQAGGSLRLSCAASGLIFLSYGMGWYRQAPGKERELVAAISSGGSTYYADSVKGRFTISRDNAKNTVYLQMNSLKPEDTAVYYCAAEQPIEFDHWGQGTQVTVSS”: the “polyreactivity (PSR sort gate)” value is given as “low polyreactivity”.

Consider “QVQLVESGGGLVQAGGSLRLSCAASGRTFRRNAMGWYRQAPGKERELVADISNGDSTKYADSVKGRFTISRDNAKNTVYLQMNSLKPEDTAVYYCNAQRYRVVVYNSHGWQTRNYWGQGTQVTVSS”, for which the “polyreactivity (PSR sort gate)” value is recorded as “low polyreactivity”.

Turning to “QVQLVESGGGLVQAGGSLRLSFAASGRTFGEYTMGWYRQATGKERELVAAISSAGRTNYADSVKGRFTISRDNAKNTVYLQMNSLKPEDTAVYYCAADWTDDVPGYDYWGQGTQVTVSS”, the “polyreactivity (PSR sort gate)” value is “low polyreactivity”.

Turning to “QVQLVESGGGLVHAGGSLRLSCAASGITYQAYAMGWYRQAPGKEREMVAAINDSGSSTYYADSVKGRFTISRDNAKNTVYLQMNSLKPEDTAVYYCAAYLWFWGQGTQVTVSS”, the “polyreactivity (PSR sort gate)” value is on record as “low polyreactivity”.

Regarding “QVQLQESGGGLVQAGGSLRLSCAASGYISSWYPMGWYRQAPGKEREFVATIAPGATTYYADSVKGRFTISRDYAKNTVYLQMNSLKPEDTAVYFCAAGPENNDFYSYWGQGTQVTVSS”, the “polyreactivity (PSR sort gate)” value is recorded as “low polyreactivity”.

Regarding “QVQLVESGGGLVQAGGSLRLSCAASGRTFYLNAMGWYRQAPGKERELVATISYTGDTTYYADSVKGRFTISGDNALNTVYLQMNSLKPEDTAVYYCAALPSRPRGYDYWGQGTQVTVSS”, the “polyreactivity (PSR sort gate)” value is “high polyreactivity”.

In the case of “QVELVESGGGLVQAGGSLRLSCAASGSIFTVYAMGWYRQAPGKERELVAAISSSGGRTYYADSVKGRFTISRDNAKNTVYLQMNSLKPEDTAVYYCNTGPGQSFRYNYWGQGTQVTVSS”, the “polyreactivity (PSR sort gate)” value is “high polyreactivity”.

Take “QVQLVESGGGLVQAGGSLRISCAASGRIFGYYGMGWSRQAPGKERELVAAITSNAGRTYYADSVKGRFTISRDNSKNTVYLQMNSLKPEDTAVYYCAATSKGSYGRQGYDYWGQGTQVTVSS”: the “polyreactivity (PSR sort gate)” value is listed as “low polyreactivity”.

For the sequence “QVQLVESGGGLVQAGGSLRLSCAASGRIFWHNAMGWYRQAPGKERELVAAITGGGSTYYADSVKGRFTISRDNAKNTVYLQMNSLKPEDTAVYYCATLGSLRYYWPGYDYWGQGTQVTVSS”, the “polyreactivity (PSR sort gate)” value is recorded as “low polyreactivity”.

On to “QGQLVESGGGLVQAGGSLRLSCAASGRIFVKNAMGWYRQAPGKERELVAAINWRGTSTYYADSVKGRFTISRDNAKNTVYLQMNSLKPEDTAVYYCNRVLGYPYGVDYWGQGTQVTVSS”, for which the “polyreactivity (PSR sort gate)” value is recorded as “high polyreactivity”.

On to “QVQLVESGGGLVQAGGSLRLSCAASGSTFRINAMGWYRQAPGKERELVAAISRSGSITYYADSVKGRFTISRDNAKNTVYLQMNSLKPEDTAVYYCAAKSRKGGDYWGQGTQVTVSS”, for which the “polyreactivity (PSR sort gate)” value is given as “high polyreactivity”.

For “QVQLVESGGGLVQAGGSLRLSCAASGSTFRPYAMGWYRQAPGKERELVAAITSGGNTYYADSVKGRFTISRDNAKNTVYLQMNSLKPEDTAVYYCAARPYYYIVRGTEYDYWGQGTQVTVSS”, the “polyreactivity (PSR sort gate)” value is recorded as “high polyreactivity”.

“QVQLVESGGGLVQAGGSLRLSCAAYYAMGWYRHAPGKERELVAAIDDGTSTNYADSVKGRFTISRDNAKNTVYLQMNSLKPEDTAVYYCNKLSEVTYYGSKFDYWGQGTQVTVSS”: the “polyreactivity (PSR sort gate)” value was “low polyreactivity”.

On to “QVQLVESGGGLVQAGGSLRLSCAASGRTFSYNAMGWYRQAPGKEWELVAAISWGGGSTYYADSVKGRFTISRDNAKNTVYLQMNSLKPEDTAVYYCAAKRLTSRQHDYWGQGTQVTVSS”, for which the “polyreactivity (PSR sort gate)” value is reported as “high polyreactivity”.

As for “QVQLVESGGGLVQAGGSLRLSCAASGRIFQGYVMGWYRQAPGKERELVAVISRRGGITNYADSVKGRFTISRDNAKNTVYLQMISLKPEDTAVYYCNDVTRVYNNGQYGYWGQGTQVTVSS”, the “polyreactivity (PSR sort gate)” value is “high polyreactivity”.

On to “QVQLVESGGGLVQAGGSLRLSCAASGITFVRYAMGWYRQAPGKERELVAAINFSGGNTYYADSVKGRFTISRDNAKNTVYLQMNSLKPEDTAVYYCAAKRQYKRSRMYYWGQGTQVTVSS”, for which the “polyreactivity (PSR sort gate)” value is “high polyreactivity”.

Consider “QVQLVESGGGLVQAGGSLRLSCAASGYTFLYYAMGWYRQAPGKERELVAAISSDGTTNYADSVKGRFTISRDNAKNTVYLQMNSLKPQVTAVYYCAADVFNWGYYYWGQGTQVTVSS”, for which the “polyreactivity (PSR sort gate)” value is reported as “low polyreactivity”.

In the case of “QVQLVESGGGLVHAGGSLRLSCAASGFIFKRYTMGWYRQAPGKERELVATINWNGGNTYYADSVKGRFTISRDNAKNTVYLQMNSVKQDDTAVYYCAATRYVTYGSWGQGTQVTVSS”, the “polyreactivity (PSR sort gate)” value is given as “high polyreactivity”.

As for “QVQLVESGGGLVQAGGSLRLSCASSGSTFYSYVMGWYRQAPGKERELVAAITYSGGRTYYADSVKGRFTISRDNEKNTVYFQMYSLKPEDTAVYYCAKRVFNYQRYDYWGQGTQVTVSS”, the “polyreactivity (PSR sort gate)” value was “high polyreactivity”.

In the case of “QVQLVESGGGLVQAGGSLRLSCAASGRIFNQYGMGWYRQAPGKERELVASITGSGGTTYYADSVKGRFTISRDNAKNTVYLQMNSLKPEDTAVYYCAAVFYGFVGYYNEDYWGQGTQVTVSS”, the “polyreactivity (PSR sort gate)” value is reported as “low polyreactivity”.

For “QVQLVESGGGLVQAGGSLRLSCAASGSTYGYYTMGWYRQAPGKERELVAAITWSGGSTYYADSVKGRFTISRDIAKNTVYLQMNSLKPEDTAVYYCAADDYWTPFGYWGQCTQVTVSS”, the “polyreactivity (PSR sort gate)” value is “low polyreactivity”.

As to “QVQLVESGGGLVQAGGSLRLSCAASGYTFVLNAMGWYRQAPGKEREFFAAITWSGGSTYYADSVKGRFTISRDNAKNTVYLQMNSLKPEDTAVYYCARSSRGKLDYWGQGTQVTVSS”, the “polyreactivity (PSR sort gate)” value was “low polyreactivity”.
